# B1: lex probe (165 bp) (dsDNA)
# DNA 1: ATGGGAGAAACGCGAATCGGGCTTGTCGGGGGCTCAACATGGCGGGGGGCCTCGTGTCGATCTGCGGCAAAGAGTAGAGAGATGGACGGCACTTGATTAGCCACTGATTCAGGGAATAATTGTCCCGACATCGGGCCAATGCCCTCTCTGCCTCCTTGAATGCCC
# DNA 2: GGGCATTCAAGGAGGCAGAGAGGGCATTGGCCCGATGTCGGGACAATTATTCCCTGAATCAGTGGCTAATCAAGTGCCGTCCATCTCTCTACTCTTTGCCGCAGATCGACACGAGGCCCCCCGCCATGTTGAGCCCCCGACAAGCCCGATTCGCGTTTCTCCCAT
# B2: unlabeled lex probe (165 bp) (dsDNA)
# DNA 1: B1 DNA 1
# DNA 2: B1 DNA 2
# B3: control probe (158 bp) (dsDNA)
# DNA 1: ATGCGCCTCGCGATCAACACGGTCGCATCCCCTCTTTGCCAGCCACGGCTCCGCGCCTGCCAGCTTCTTTTTTCGTTGTCTGGGGGCTAGGGCGAGACACCCGCATACCGATGACTTCGTCGGCAGTGGCCCAAGACGGATTGCGTAGTGCGCCTACG
# DNA 2: CGTAGGCGCACTACGCAATCCGTCTTGGGCCACTGCCGACGAAGTCATCGGTATGCGGGTGTCTCGCCCTAGCCCCCAGACAACGAAAAAAGAAGCTGGCAGGCGCGGAGCCGTGGCTGGCAAAGAGGGGATGCGACCGTGTTGATCGCGAGGCGCAT
# B4: probe 1 (58 bp) (dsDNA)
# DNA 1: ACTTGATTAGCCACTGATTCAGGGAATAATTGTCCCGACATCGGGCCAATGCCCTCTC
# DNA 2: GAGAGGGCATTGGCCCGATGTCGGGACAATTATTCCCTGAATCAGTGGCTAATCAAGT
# B5: probe 2 (50 bp, 8-bp site deleted) (dsDNA)
# DNA 1: ACTTGATTAGCCACTGATTCAGGGACCCGACATCGGGCCAATGCCCTCTC
# DNA 2: GAGAGGGCATTGGCCCGATGTCGGGTCCCTGAATCAGTGGCTAATCAAGT
# B6: probe 4 (probe 3 with putative LexR site) (dsDNA)
# DNA 1: GGCTCCGCGCCTGCCAGCATAATTGTTCGTTGTCTGGGGGCTAGGGCGAGACACCCGC
# DNA 2: GCGGGTGTCTCGCCCTAGCCCCCAGACAACGAACAATTATGCTGGCAGGCGCGGAGCC
# What was measured:
# LexR [1] = molecular target: T1, LexR (Lysobacter antibioticus OH13, UniProt A0A0S2F3V0 1-384); assay: EMSA; no myxin; EMSA (LightShift kit): 1x binding buffer, 50 ng/uL poly(dI-dC), 2.5% glycerol, 5 mM MgCl (so in the source), 0.05% NP-40, 5 fmol labeled probe in 20 uL, 30 min, room; conditions: protein: recombinant; tags: His6 (pET-28a, BamHI/EcoRI); chain copies: 2; label: 5' biotin; blunt
# T1 sequence: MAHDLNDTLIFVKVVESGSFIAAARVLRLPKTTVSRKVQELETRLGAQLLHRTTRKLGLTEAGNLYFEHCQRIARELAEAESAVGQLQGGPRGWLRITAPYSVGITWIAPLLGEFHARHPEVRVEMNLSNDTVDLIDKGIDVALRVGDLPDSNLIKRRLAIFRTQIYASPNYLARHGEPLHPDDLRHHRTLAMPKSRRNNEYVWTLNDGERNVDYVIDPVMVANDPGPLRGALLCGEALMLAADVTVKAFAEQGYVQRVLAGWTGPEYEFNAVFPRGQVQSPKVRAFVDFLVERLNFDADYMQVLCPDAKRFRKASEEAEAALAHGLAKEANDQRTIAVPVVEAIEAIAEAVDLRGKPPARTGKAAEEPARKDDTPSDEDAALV
# LexR [2] = molecular target: T1, LexR; assay: competition; unlabeled competitor vs biotin-lex probe; EMSA (LightShift kit): 1x binding buffer, 50 ng/uL poly(dI-dC), 2.5% glycerol, 5 mM MgCl (so in the source), 0.05% NP-40, 5 fmol labeled probe in 20 uL, 30 min, room; conditions: protein: recombinant; tags: His6 (pET-28a, BamHI/EcoRI); chain copies: 2; label: none; blunt
# LexR [3] = molecular target: T1, LexR; assay: EMSA; EMSA (LightShift kit): 1x binding buffer, 50 ng/uL poly(dI-dC), 2.5% glycerol, 5 mM MgCl (so in the source), 0.05% NP-40, 5 fmol labeled probe in 20 uL, 30 min, room; conditions: protein: recombinant; tags: His6 (pET-28a, BamHI/EcoRI); chain copies: 2; label: 5' biotin; blunt
binder,measurement,setting,value
B1,binding result,LexR [1],binds
B2,binding result,LexR [2],binds
B3,binding result,LexR [3],no binding
B4,binding result,LexR [3],binds
B5,binding result,LexR [3],no binding
B6,binding result,LexR [3],no binding
